# Experimental data from patent publication US20060121483A1, “Methods for detecting teneurin signalling and related screening methods” (priority 2002, published 2006).
# Molecular target: TEY (teneurin-2 construct: Transmembrane, EGF-like and YD-repeats; entire long form of the extracellular domain, without cytoplasmic domain) (chicken) (UniProt Q9DER5)
# Experiment: cell-based or functional assay
substance,measurement,value
BDAD-CTEY (GAL4 binding domain and NFkB activation domain fused to full length teneurin-2) (from UniProt P04386 1-147; Q9DER5 1-2802),Luciferase activity (GAL4 reporter; cleavage of the BDAD-teneurin-2 fusion),6 fold
